Results from publication PMC4876856.

Target: truncated rabbit TRPV2 (residues 56-560 and 581-721) (rabbit) (UniProt G1SNM3)
Assay: cryo-EM structure

- stoichiometry N: 4
Substance: truncated rabbit TRPV2 (residues 56-560 and 581-721) (from UniProt G1SNM3 56-560; G1SNM3 581-721) (domain or fragment)
